According to US20260049137A1 (JANUX THERAPEUTICS, published 2026):
Like-named read-outs stand apart in the source and are kept apart here. Each block holds one binder with its values, some of them ahead of it.

Key:
[1] = molecular target: T1, TROP2 on TROP2 positive NCI-H292 or HCT116 tumor cells (UniProt P09758 27-323, limits assumed); test: cell-based or functional assay
T1 sequence (looked up): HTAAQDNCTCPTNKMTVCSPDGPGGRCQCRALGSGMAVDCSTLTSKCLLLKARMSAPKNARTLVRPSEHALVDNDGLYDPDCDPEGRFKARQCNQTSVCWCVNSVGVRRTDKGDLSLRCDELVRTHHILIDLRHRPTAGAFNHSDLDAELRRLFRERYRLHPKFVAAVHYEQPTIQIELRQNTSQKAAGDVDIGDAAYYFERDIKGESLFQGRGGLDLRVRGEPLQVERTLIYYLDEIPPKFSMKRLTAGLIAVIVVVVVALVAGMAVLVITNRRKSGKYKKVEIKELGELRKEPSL

[2] = molecular target: T1, TROP2 on TROP2 positive NCI-H292 or …; test: cell-based or functional assay; remark: listed apart in the source
[3] = molecular target: T1, TROP2 on TROP2 positive NCI-H292 or …; test: cell-based or functional assay; remark: listed apart in the source
[4] = molecular target: T1, TROP2 on TROP2 positive NCI-H292 or …; test: cell-based or functional assay; remark: listed apart in the source
[5] = molecular target: T1, TROP2 on TROP2 positive NCI-H292 or …; test: cell-based or functional assay; remark: listed apart in the source
[6] = molecular target: T2, cynomolgus monkey TROP2 on recombinant HEK293 cells (cynomolgus monkey, UniProt A0A2K5UE71 27-323); test: cell-based or functional assay
T2 sequence: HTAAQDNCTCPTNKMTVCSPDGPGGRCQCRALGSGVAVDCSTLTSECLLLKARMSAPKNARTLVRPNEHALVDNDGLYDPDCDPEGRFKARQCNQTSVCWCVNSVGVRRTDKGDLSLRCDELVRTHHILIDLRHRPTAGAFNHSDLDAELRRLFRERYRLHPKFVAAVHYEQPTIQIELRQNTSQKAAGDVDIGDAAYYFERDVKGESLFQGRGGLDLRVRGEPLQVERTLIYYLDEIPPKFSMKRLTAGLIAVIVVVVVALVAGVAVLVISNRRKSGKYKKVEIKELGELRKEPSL

[7] = molecular target: T3, human CD3ε-biotin (biotinylated CD3ε) (human, UniProt P07766 23-126, limits assumed, biotinylated); test: ELISA: biotinylated CD3 captured on neutravidin coated plates, HRP secondary antibody, OD 450 nm
T3 construct: also called CD3e-bio; CD3e-biotin
Procedure: (§1) The TCE constructs diluted in buffer were then added to the antigen coated plates. Binding was detected using a standard horse radish peroxidase secondary antibody. The concentration of the TCE required to achieve 50% maximal signal (EC₅₀) was calculated using Graphpad Prism software.

[8] = molecular target: T4, human TROP2-biotin (biotinylated TROP2) (human, UniProt P09758 27-274, limits assumed, biotinylated); test: ELISA: biotinylated TROP2 captured on neutravidin coated plates, HRP secondary antibody, OD 450 nm
T4 construct: also called hTROP2-Biotin
T4 sequence (looked up): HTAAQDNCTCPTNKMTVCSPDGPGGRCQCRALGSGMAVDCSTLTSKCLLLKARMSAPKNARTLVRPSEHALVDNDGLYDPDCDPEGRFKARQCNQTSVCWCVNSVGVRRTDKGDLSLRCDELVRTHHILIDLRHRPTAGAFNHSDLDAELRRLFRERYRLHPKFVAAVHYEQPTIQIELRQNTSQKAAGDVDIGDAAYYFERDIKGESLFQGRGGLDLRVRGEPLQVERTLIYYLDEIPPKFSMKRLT
Procedure: as §1

T3 sequence (P07766 23-126 limits assumed): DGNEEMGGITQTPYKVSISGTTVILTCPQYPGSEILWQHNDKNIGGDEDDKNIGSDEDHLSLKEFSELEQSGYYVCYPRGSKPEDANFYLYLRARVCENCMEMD

B1: TCE-1: anti-CD3 scFv wt + linker + anti-TROP2 HC wt, with anti-TROP2 LC wt (bispecific antibody)
light: DIQLTQSPSSLSASVGDRVSITCKASQDVSIAVAWYQQKPGKAPKLLIYSASYRYTGVPDRFSGSGSGTDFTLTISSLQPEDFAVYYCQQHYITPLTFGAGTKVEIKRTVAAPSVFIFPPSDEQLKSGTASVVCLLNNFYPREAKVQWKVDNALQSGNSQESVTEQDSKDSTYSLSSTLTLSKADYEKHKVYACEVTHQGLSSPVTKSFNRGEC
heavy: not shown
H292 Cytotox EC50 (pM) [1]: 0.7 pM
H292 Cytotox EC50 (pM) [2]: 0.7 pM
H292 Cytotox EC50 (pM) [3]: 0.7 pM

B2: TCE-29: anti-CD3 scFv wt + linker + anti-TROP2 (F108A) HC, with anti-TROP2 LC wt (bispecific antibody)
light: DIQLTQSPSSLSASVGDRVSITCKASQDVSIAVAWYQQKPGKAPKLLIYSASYRYTGVPDRFSGSGSGTDFTLTISSLQPEDFAVYYCQQHYITPLTFGAGTKVEIKRTVAAPSVFIFPPSDEQLKSGTASVVCLLNNFYPREAKVQWKVDNALQSGNSQESVTEQDSKDSTYSLSSTLTLSKADYEKHKVYACEVTHQGLSSPVTKSFNRGEC
heavy: not shown
HCT116 Cytotox EC50 (pM) [4]: 109 pM
H292 Cytotox EC50 (pM) [5]: 5 pM
CynoTROP2+ HEK293 cells Cytotox EC50 (pM) [6]: 0.2 pM

B3: TCE-27: anti-CD3 scFv + linker + anti-TROP2 HC wt, with anti-TROP2 LC wt (bispecific antibody)
light: DIQLTQSPSSLSASVGDRVSITCKASQDVSIAVAWYQQKPGKAPKLLIYSASYRYTGVPDRFSGSGSGTDFTLTISSLQPEDFAVYYCQQHYITPLTFGAGTKVEIKRTVAAPSVFIFPPSDEQLKSGTASVVCLLNNFYPREAKVQWKVDNALQSGNSQESVTEQDSKDSTYSLSSTLTLSKADYEKHKVYACEVTHQGLSSPVTKSFNRGEC
heavy: EVQLVESGGGLVQPGGSLKLSCAASGFTFNKYAMNWVRQASGKGLEWVGRIRSKYNNYATYYADSVKDRFTISRDDSKNTAYLQMNSLKTEDTAVYYCVRHGNFGNSYISYWAYWGQGTLVTVSSGGGGSGGGGSGGGGSQTVVTQEPSFSVSPGGTVTLTCRSSTGAVTSGNYANWVQQTPGQAPRGLIGGTKFLAPGVPDRFSGSILGNKAALTITGAQADDESDYYCVLWYSNRWVFGGGTKLTVLGGGGSQVQLQQSGSELKKPGASVKVSCKASGYTFTNYGMNWVKQAPGQGLKWMGWINTYTGEPTYTDDFKGRFAFSLDTSVSTAYLQISSLKADDTAVYFCARGGFGSSYWYFDVWGQGSLVTVSSASTKGPSVFPLAPSSKSTSGGTAALGCLVKDYFPEPVTVSWNSGALTSGVHTFPAVLQSSGLYSLSSVVTVPSSSLGTQTYICNVNHKPSNTKVDKKVEPKSC
H292 Cytotox EC50 (pM) [3]: 0.5 pM

EC50 [7]: 0.23 nM
EC50 [8]: 0.87 nM
B4: TCE-49 (bispecific antibody)
light chain (anti-TROP2 LC wt): DIQLTQSPSSLSASVGDRVSITCKASQDVSIAVAWYQQKPGKAPKLLIYSASYRYTGVPDRFSGSGSGTDFTLTISSLQPEDFAVYYCQQHYITPLTFGAGTKVEIKRTVAAPSVFIFPPSDEQLKSGTASVVCLLNNFYPREAKVQWKVDNALQSGNSQESVTEQDSKDSTYSLSSTLTLSKADYEKHKVYACEVTHQGLSSPVTKSFNRGEC
heavy chain (anti-CD3 scFv N236A + linker + anti-TROP2 F108A HC): not shown
notes: also called TCE-49: anti-CD3 scFv (N236A) + linker + anti-TROP2 (F108A) HC, with anti-TROP2 LC wt

B5: TCE-35: anti-CD3 scFv wt + linker + anti-TROP2 (D109A) HC, with anti-TROP2 LC wt (bispecific antibody)
light: DIQLTQSPSSLSASVGDRVSITCKASQDVSIAVAWYQQKPGKAPKLLIYSASYRYTGVPDRFSGSGSGTDFTLTISSLQPEDFAVYYCQQHYITPLTFGAGTKVEIKRTVAAPSVFIFPPSDEQLKSGTASVVCLLNNFYPREAKVQWKVDNALQSGNSQESVTEQDSKDSTYSLSSTLTLSKADYEKHKVYACEVTHQGLSSPVTKSFNRGEC
heavy: not shown
H292 Cytotox EC50 (pM) [5]: 1 pM
CynoTROP2+ HEK293 cells Cytotox EC50 (pM) [6]: 0.1 pM

B6: TCE-19: anti-CD3 scFv (W233A) + linker + anti-TROP2 HC wt, with anti-TROP2 LC wt (bispecific antibody)
light: DIQLTQSPSSLSASVGDRVSITCKASQDVSIAVAWYQQKPGKAPKLLIYSASYRYTGVPDRFSGSGSGTDFTLTISSLQPEDFAVYYCQQHYITPLTFGAGTKVEIKRTVAAPSVFIFPPSDEQLKSGTASVVCLLNNFYPREAKVQWKVDNALQSGNSQESVTEQDSKDSTYSLSSTLTLSKADYEKHKVYACEVTHQGLSSPVTKSFNRGEC
heavy: not shown
H292 Cytotox EC50 (pM) [2]: > 1000 pM

B7: TCE-26: anti-CD3 scFv (F240A) + linker + anti-TROP2 HC wt, with anti-TROP2 LC wt (bispecific antibody)
light: DIQLTQSPSSLSASVGDRVSITCKASQDVSIAVAWYQQKPGKAPKLLIYSASYRYTGVPDRFSGSGSGTDFTLTISSLQPEDFAVYYCQQHYITPLTFGAGTKVEIKRTVAAPSVFIFPPSDEQLKSGTASVVCLLNNFYPREAKVQWKVDNALQSGNSQESVTEQDSKDSTYSLSSTLTLSKADYEKHKVYACEVTHQGLSSPVTKSFNRGEC
heavy: not shown
H292 Cytotox EC50 (pM) [2]: 20 pM

B8: TCE-28: anti-CD3 scFv + linker + anti-TROP2 HC wt, with anti-TROP2 LC wt (bispecific antibody)
light: DIQLTQSPSSLSASVGDRVSITCKASQDVSIAVAWYQQKPGKAPKLLIYSASYRYTGVPDRFSGSGSGTDFTLTISSLQPEDFAVYYCQQHYITPLTFGAGTKVEIKRTVAAPSVFIFPPSDEQLKSGTASVVCLLNNFYPREAKVQWKVDNALQSGNSQESVTEQDSKDSTYSLSSTLTLSKADYEKHKVYACEVTHQGLSSPVTKSFNRGEC
heavy: not shown
H292 Cytotox EC50 (pM) [3]: 2.1 pM

EC50 [7]: 0.36 nM
EC50 [8]: 1.3 nM
B9: TCE-48 (bispecific antibody)
light chain (anti-TROP2 LC wt): DIQLTQSPSSLSASVGDRVSITCKASQDVSIAVAWYQQKPGKAPKLLIYSASYRYTGVPDRFSGSGSGTDFTLTISSLQPEDFAVYYCQQHYITPLTFGAGTKVEIKRTVAAPSVFIFPPSDEQLKSGTASVVCLLNNFYPREAKVQWKVDNALQSGNSQESVTEQDSKDSTYSLSSTLTLSKADYEKHKVYACEVTHQGLSSPVTKSFNRGEC
heavy chain (anti-CD3 scFv L232A + linker + anti-TROP2 F108A HC): not shown
notes: also called TCE-48: anti-CD3 scFv (L232A) + linker + anti-TROP2 (F108A) HC, with anti-TROP2 LC wt

B10: TCE-30: anti-CD3 scFv (H101A) + linker + anti-TROP2 (F108A) HC, with anti-TROP2 LC wt (bispecific antibody)
light: DIQLTQSPSSLSASVGDRVSITCKASQDVSIAVAWYQQKPGKAPKLLIYSASYRYTGVPDRFSGSGSGTDFTLTISSLQPEDFAVYYCQQHYITPLTFGAGTKVEIKRTVAAPSVFIFPPSDEQLKSGTASVVCLLNNFYPREAKVQWKVDNALQSGNSQESVTEQDSKDSTYSLSSTLTLSKADYEKHKVYACEVTHQGLSSPVTKSFNRGEC
heavy: not shown
CynoTROP2+ HEK293 cells Cytotox EC50 (pM) [6]: 1 pM

B11: TCE-33: anti-CD3 scFv + linker + anti-TROP2 (F108A) HC, with anti-TROP2 LC wt (bispecific antibody)
light: DIQLTQSPSSLSASVGDRVSITCKASQDVSIAVAWYQQKPGKAPKLLIYSASYRYTGVPDRFSGSGSGTDFTLTISSLQPEDFAVYYCQQHYITPLTFGAGTKVEIKRTVAAPSVFIFPPSDEQLKSGTASVVCLLNNFYPREAKVQWKVDNALQSGNSQESVTEQDSKDSTYSLSSTLTLSKADYEKHKVYACEVTHQGLSSPVTKSFNRGEC
heavy: EVQLVESGGGLVQPGGSLKLSCAASGFTFNKYAMNWVRQASGKGLEWVGRIRSKYNNYATYYADSVKDRFTISRDDSKNTAYLQMNSLKTEDTAVYYCVRHGNFGNSYISYWAYWGQGTLVTVSSGGGGSGGGGSGGGGSQTVVTQEPSFSVSPGGTVTLTCRSSTGAVTSGNYANWVQQTPGQAPRGLIGGTKFLAPGVPDRFSGSILGNKAALTITGAQADDESDYYCVLWYSNRWVFGGGTKLTVLGGGGSQVQLQQSGSELKKPGASVKVSCKASGYTFTNYGMNWVKQAPGQGLKWMGWINTYTGEPTYTDDFKGRFAFSLDTSVSTAYLQISSLKADDTAVYFCARGGFGSSYWYADVWGQGSLVTVSSASTKGPSVFPLAPSSKSTSGGTAALGCLVKDYFPEPVTVSWNSGALTSGVHTFPAVLQSSGLYSLSSVVTVPSSSLGTQTYICNVNHKPSNTKVDKKVEPKSC
HCT116 Cytotox EC50 (pM) [4]: 73 pM
H292 Cytotox EC50 (pM) [5]: 3 pM

B12: TCE-24: anti-CD3 scFv (W238A) + linker + anti-TROP2 HC wt, with anti-TROP2 LC wt (bispecific antibody)
light: DIQLTQSPSSLSASVGDRVSITCKASQDVSIAVAWYQQKPGKAPKLLIYSASYRYTGVPDRFSGSGSGTDFTLTISSLQPEDFAVYYCQQHYITPLTFGAGTKVEIKRTVAAPSVFIFPPSDEQLKSGTASVVCLLNNFYPREAKVQWKVDNALQSGNSQESVTEQDSKDSTYSLSSTLTLSKADYEKHKVYACEVTHQGLSSPVTKSFNRGEC
heavy: not shown
H292 Cytotox EC50 (pM) [2]: > 1000 pM

B13: TCE-32: anti-CD3 scFv (F240A) + linker + anti-TROP2 (F108A) HC, with anti-TROP2 LC wt (bispecific antibody)
light: DIQLTQSPSSLSASVGDRVSITCKASQDVSIAVAWYQQKPGKAPKLLIYSASYRYTGVPDRFSGSGSGTDFTLTISSLQPEDFAVYYCQQHYITPLTFGAGTKVEIKRTVAAPSVFIFPPSDEQLKSGTASVVCLLNNFYPREAKVQWKVDNALQSGNSQESVTEQDSKDSTYSLSSTLTLSKADYEKHKVYACEVTHQGLSSPVTKSFNRGEC
heavy: not shown
HCT116 Cytotox EC50 (pM) [4]: > 3000 pM
CynoTROP2+ HEK293 cells Cytotox EC50 (pM) [6]: 5 pM
